Source: patent publication US12168677B2, “Proteins for the treatment of epithelial barrier function disorders” (Genevive, Inc., priority 2017, dated 2024)

B1: SG-15: 400 amino acid protein (SEQ ID NO:1) encoded by the genome of Eubacterium eligens (protein, listed as Eubacterium eligens)
chain: EYTEIRTASELVEAAKSASGNYKLMTDIDMTGVEWTPWDFSGTFDGNGHSILNLSVKTVSKKTMKTYDGNRKEYKTYGAGFFGVLTGAKVTGLDIYGARIEITTTEPCFAAPIAGLADDSDISDCIIKDTYVSLTDSAKMWGTGGIAGFGSGNLDNITTDVTLVCVDTDAAVRDEQFMGGAYAAGFLNIRNCSITIDGYDSDHGYVHDGGLVGMYMVYPLELSKTYQGEVLNNKVKGMITFFEDNTDRRAYCQANMGEVMNWTYAYSGFTSDFKRNETYDYSVTLLPEMCSNPSYTDVVTEATASDFGYTTHTCSTCGYTYSDTYTIHEHKVDSYSVVKEAASTDKKDGIEAGTCSLCNQTVYREYAANVVTDDNTQATDNKASGTAVKKGMKESTAVFA
B2: SG-18: 267 amino acid protein (SEQ ID NO:19) encoded by the genome of Clostridium bartlettii sp. nov. (protein, listed as Clostridium bartlettii)
chain: EVDSSKEQATSKDEKQVVVATSVAITEILDRLGVEVSGVPQTSYELPESAKGATEIGSPMNPDMEIIKSLNPTDVICVDTLGSDFEKQFEENNINADFYNLSNVDGLKETIAALGEKFNKQDKANEILDEIKEVENKVNSNKKSDDKILVLFGAPGSVMVATDKSYIGNLVELAGGNNIFSNATSSFTQINLEEIIKLNPDKILVMTHAVPEAAKKSVEEELSKDLWKNVNAVKNNDITYLENGYFGMSANLQIVEAVEKLGDILYE
B3: SG-16: 119 amino acid protein (SEQ ID NO:9) encoded by the genome of Eubacterium eligens (protein, listed as Eubacterium eligens)
chain: MTGCSGSKEPDNKTSVDYTVVENADLPEELKKLIESKKDKVMRLTYTTKDYTYVVAGYGTRETSGYSIKVNDVYTGDNALYIDLNLIGPAAGEAVNEVETYPVIVLKMERREESVVFKM
B4: SG-17: 327 amino acid protein (SEQ ID NO:13) encoded by the genome of Eubacterium eligens (protein, listed as Eubacterium eligens)
chain: CNSKIDVKYDYNVEDYVQLGQYENISVQVDKTSIENELIESKIKQDVEDNTTYTEVDRGAIASDQILVTYTATSSGASLSGLTNTDGKTMILGTDTLGLELDELDQALYGMTPGQTKILIVDIPEDYSSDLYKGTRVVFELTMQTVAQANVPMITNAYVKEAFGYDTVEEYRQSIKESLETDINSKVENKIQEDVLSSLQDTFKISSYPDSLMEETRSRLETSIGFYADFSNLSKDEYCQKQYGLSFDDFVKKSVVQQLIMEAIVKDRNMTMREYDYKGSLDDFAADNGYSNADTFVEKFGKDKIVKAMLVQKAQDYVIEHANISYK

These molecules were tested on IL-23 (assay: IL-23 production by monocytes in co-culture TEER assay (Luminex)). Conditions: cells treated with SG-15 and HK E. coli.
Type: cell-based, human
Protocol: (§1) Production of the cytokines TNF-α, IL-23, and IL-10 by monocytes was measured in the tissue culture supernatant from the basolateral chamber of the co-culture TEER assay performed in Example 1B. Following TEER readings, the supernatants were centrifuged at 10,000 g for 5 minutes at 4° C. to remove cell debris. Luminex analysis was performed according to the manufacturer's instructions (Magpix instrument and xPonent software version 4.2; Luminex Corporation (Austin, TX)). Luminex analysis was performed to determine the […] concentration of TNF-α and IL-23 produced by monocytes. Luminex analysis utilizes a bead-based system for quantification of multiple cytokines from a single sample. Like an ELISA, Luminex beads are coated with a capture antibody, and incubation with samples allows the target to bind to the capture antibody. Beads are washed and incubated with a fluorescently labeled detection antibody for quantification of bound target. Cytometric analysis is used to differentiate bead populations, which are loaded with differential fluorescent dyes, and to quantify cytokine levels by measuring detection antibody signal. TNF-α, IL-23, and IL-10 production in untreated cells and cells pre-incubated with SG-15 for 6 hours prior to HK E. coli treatment was normalized to pg/ml concentrations elicited by HK E. coli only, which was set to 1.0. […] The graphs in FIGS. 2A, 2B and 2C each represent data pooled from an individual experiment (n=3).

Molecule	IL-23 production compared with control cells treated with media only
B1	no significant difference

Same assay, conditions: pre-incubated 6 hours prior to HK E. coli; basolateral supernatant

Molecule	IL-23 production normalized to HK E. coli only (set to 1.0)
B2	1.10
B3	1.06
B4	1.10
B1	0.57

The molecules below were run on IL-10 (assay: IL-10 production by monocytes in co-culture TEER assay (Luminex)). Conditions: pre-incubated 6 hours prior to HK E. coli; basolateral supernatant.
Type: cell-based, human
Protocol: as §1

Molecule	IL-10 production normalized to HK E. coli only (set to 1.0)
B2	0.93
B3	1.23
B4	0.51
B1	0.66

The molecules below were run on HCT8 enterocytes and HT29-MTX goblet cells (assay: Epithelial cell wound healing (Oris Cell Migration assay)). Conditions: SG protein 1 μg/ml, EGF 30 ng/ml, staurosporine 100 nM; 48 hours.
Type: cell-based, human
Text: HCT8 enterocytes and HT29-MTX goblet cells were used in wound healing studies. The 96 well Oris Cell Migration assay containing plugs preventing cell attachment in the center of each well was used according to the manufacturer's instructions (Platypus Technologies, Madison, WI). The migration assay plates were warmed to room temperature prior to use and plugs were removed from 100% confluence wells prior to cell addition. The HCT8 enterocyte and HT29-MTX goblet cell lines were used at a 9:1 ratio with a total of 5×10^4 total cells added per well (4.5×10^4 HCT8 cells and 0.5×10^4 HT29-MTX cells). […] Plugs were then removed from all control and sample wells. Control wells included cells treated with the diluent vehicle as the blank, 30 ng/ml epidermal growth factor (EGF) as the positive control, and 100 nM staurosporine as the negative control, all diluted in cRPMI. Sample wells contained SG-15 protein at a concentration of 1 μg/ml diluted in cRPMI. 100% and 0% wells were cultured in cRPMI. […] Prior to staining for viable cells, plugs were removed from the 0% wells. Treatment media was removed and cells were washed in PBS containing 0.9 mM CaCl2) and 0.5 mM MgCl2. […] Relative fluorescent values from 100% wells where plugs were removed prior to cell plating were set as the max effect, and 0% wells where plugs remained in place until immediately before staining were used as the baseline. Samples were normalized between 100% and 0% samples and values expressed as a percent growth.

Molecule	Wound healing, percent growth
B2	slight increase in growth
B3	significant increase in growth
B4	significant increase in growth
B1	significant increase in growth

Each molecule was assayed on DSS treated mice (assay: DSS model: gross pathology score). Conditions: 50 nmoles/kg i.p. b.i.d.; 2.5% DSS 6 days.
Type: in vivo, C57BL/6 mice
Protocol: Eight-week old C57BL/6 mice were housed 5 animals were cage and given food and water ad libitum for 7 days. Following the 7-day acclimation period, treatments were initiated concurrently with addition of 2.5% DSS to the drinking water. […] The mice were treated with 2.5% dextran sodium sulfate (DSS) in their drinking water for 6 days. Treatments were continued with SG-15 or […]-GLP2 twice a day (b.i.d.) in the morning and evening (every 8 and 16 hr) with i.p. injections at 50 nmoles/kg. Fresh 2.5% DSS drinking water was prepared every 2 days. Gross pathology observations were made in mice included in the concurrent DSS model performed in Example 1E. […] The scoring system used was: (0)=no gross pathology, (1)=streaks of blood visible in feces, (2)=completely bloody fecal pellets, (3) bloody fecal material visible in cecum, (4) bloody fecal material in cecum and loose stool, (5)=rectal bleeding. Results are shown in FIG. 7, with the graph representing data pooled from the 2 individual experiments (n=20).

Molecule	Clinical scores compared with DSS mice treated with Gly2-GLP2
B1	No differences

Same assay, conditions: 50 nmoles/kg i.p. b.i.d.; 2.5% DSS 6 days; score 0-5

Molecule	Gross pathology compared to vehicle treated DSS mice
B2	did not reduce gross pathology
B3	did not reduce gross pathology
B4	did not reduce gross pathology
B1	significantly improved gross pathology

Each molecule was assayed on DSS treated mice (assay: DSS model: colon length). Conditions: 50 nmoles/kg i.p. b.i.d.; 2.5% DSS 6 days.
Type: in vivo, C57BL/6 mice
Protocol: Eight-week old C57BL/6 mice were housed 5 animals were cage and given food and water ad libitum for 7 days. Following the 7-day acclimation period, treatments were initiated concurrently with addition of 2.5% DSS to the drinking water. […] The mice were treated with 2.5% dextran sodium sulfate (DSS) in their drinking water for 6 days. Treatments were continued with SG-15 or […]-GLP2 twice a day (b.i.d.) in the morning and evening (every 8 and 16 hr) with i.p. injections at 50 nmoles/kg. Fresh 2.5% DSS drinking water was prepared every 2 days. Colon length was measured in mice included in the DSS model described in Example 1E. […] The graph in FIG. 8 represents data pooled from the 2 individual experiments (n=20).

Molecule	Colon length / colon shortening elicited by DSS treatment
B2	did not reduce colon shortening
B3	slightly improved colon shortening
B4	did not reduce colon shortening
B1	reduced colon shortening
